From patent US20260062447A1 (UNIVERSITY OF SOUTHAMPTON, published 2026)
One block for each binder: values may come before it.

What was measured:
[1] = target: HIF-1 three-domain protein; test: cell-based or functional assay
[2] = target: T1, HIF-1α PAS-B domain (UniProt Q16665 238-349, limits assumed, labelled for MST (label not named)); test: MST (microscale thermophoresis), labelled HIF-1α PAS-B [part 4 of 5]
T1 construct: domain: PAS-B; 25 nM labelled protein in the assay; also called HIF-1α PAS-B protein; labelled HIF-1α PAS-B
Procedure: (§1) An aliquot of labelled HIF-1α PAS-B was thawed on ice and diluted to 50 nM with HIF MST assay buffer, before being centrifuged at 12,000 rpm for 15 minutes. […] Samples were loaded into NanoTemper® Monolith NT.115 premium treated capillaries and measurements were carried out using a Monolith NT.115 system at 25° C. using 50% MST power and 50% LED power. Data was analysed by NanoTemper® analysis software. Binding curves were fitted using GraphPad Prism 8 software.

[3] = target: T1, HIF-1α PAS-B domain; test: MST (microscale thermophoresis), labelled HIF-1α PAS-B [part 3 of 5]
Procedure: as §1

[4] = target: T1, HIF-1α PAS-B domain; test: MST (microscale thermophoresis), labelled HIF-1α PAS-B [part 3 of 14) B]
Procedure: as §1

T1 sequence (Q16665 238-349 limits assumed): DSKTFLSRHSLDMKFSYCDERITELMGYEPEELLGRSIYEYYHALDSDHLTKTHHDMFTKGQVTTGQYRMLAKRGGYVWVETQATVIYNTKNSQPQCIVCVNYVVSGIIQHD

B1: cyclo-CLLFVY (Cys leu leu phe val tyr) (peptide)
peptide: CLLFVY
modifications: cyclic peptide (cyclo-)
IC50 of inhibition of FAM-HRE DNA binding (fluorescence polarization) [1]: 76.5 µM

B3: cyclic peptide Ser leu leu phe val tyr (peptide)
peptide: SLLFVY
modifications: cyclic peptide
notes: Comparative purposes only; also called S (serine) cysteine derivative
binding result [3]: no binding

B4: Cyclo-CLLYVY (peptide)
cyclic peptide: CLLYVY
modifications: cyclic (cyclo-) peptide
notes: also called Y derivative at the phenylalanine position; Cys leu leu tyr val tyr
Kd [4]: > 200 µM

Now from value to binder:

binding result [2]: no binding
B2: cyclic peptide Met leu leu phe val tyr (peptide)
peptide: MLLFVY
modifications: cyclic peptide
notes: Comparative purposes only; also called M (methionine) cysteine derivative

binding result [3]: no binding
B5: cyclic peptide Thr leu leu phe val tyr (peptide)
peptide: TLLFVY
modifications: cyclic peptide
notes: Comparative purposes only; also called T (threonine) cysteine derivative
